Where a SMILES comes first, the peptide text is derived from it. Bridges are numbered along the chain shown (N, C = ends).

The first data set can be described thus: circular dichroism. The settings on record: Milli-Q water; pH ns; ns °C; 0.5 mM.
Regarding `CC(C)[C@H](N)C(=O)N[C@@H](CO)C(=O)N[C@@H](CCCCN)C(=O)N[C@H]1CCC(=O)NCCCC[C@@H](C(=O)N[C@H](C(=O)N[C@@H](CCCCN)C(=O)N[C@@H](CCCNC(=N)N)C(=O)N[C@@H](CCCCN)C(=O)N[C@@H](CCC(N)=O)C(=O)N[C@@H](CC(N)=O)C(N)=O)C(C)C)NC(=O)[C@H](CCC(N)=O)NC(=O)[C@H](CO)NC(=O)[C@H](CCCNC(=N)N)NC1=O` (H-VSKERSQKVKRKQN-NH2; lactam 4-8), the helicity is -2260 MRE222.

`CC(C)C[C@H](NC(=O)[C@H](CCCCN)NC(=O)[C@H](CO)NC(=O)[C@@H](N)C(C)C)C(=O)N[C@@H](CCCNC(=N)N)C(=O)N[C@H]1CCC(=O)NCCCC[C@@H](C(=O)N[C@@H](CCCNC(=N)N)C(=O)N[C@@H](CCCCN)C(=O)N[C@@H](CCC(N)=O)C(=O)N[C@@H](CC(N)=O)C(N)=O)NC(=O)[C@H](C(C)C)NC(=O)[C@H](CC(C)C)NC(=O)[C@H](CCC(N)=O)NC1=O` (H-VSKLREQLVKRKQN-NH2; lactam 6-10) showed a helicity of -4400 MRE222.

Staying with this data set, now noted: water (methods paragraph says 0.1 M phosphate; tables say water); pH ns; 20 °C; 0.5 mM.
Compound `CC[C@H](C)[C@@H]1NC(=O)[C@H](CCCCN)NC(=O)[C@@H](NC(=O)[C@H](CCCCN)NC(=O)[C@H](CC(C)C)NC(=O)[C@H](CC(N)=O)NC(C)=O)CCC(=O)NCCCC[C@@H](C(=O)N[C@H](C(=O)N[C@H](C(=O)N[C@@H](CCCCN)C(=O)N[C@@H](CC(C)C)C(=O)N[C@@H](CCCCN)C(=O)N[C@@H](CC(=O)O)C(=O)N[C@@H](CCC(=O)O)C(N)=O)C(C)C)C(C)C)NC(=O)[C@H](CCCCN)NC1=O` (Ac-NLKEKIKKVVKLKDE-NH2; lactam 4-8) yielded a helicity of -2460 MRE222.

For the compound `CC(=O)N[C@H](C(=O)N[C@@H](CO)C(=O)N[C@@H](CCCCN)C(=O)N[C@@H](CC(C)C)C(=O)N[C@H]1CCCCNC(=O)CC[C@@H](C(=O)N[C@@H](CCCCN)C(=O)N[C@@H](CCCNC(=N)N)C(=O)N[C@@H](CCCCN)C(=O)N[C@@H](CCC(N)=O)C(=O)N[C@@H](CC(N)=O)C(N)=O)NC(=O)[C@H](CC(C)C)NC(=O)[C@H](CCC(N)=O)NC(=O)[C@H](CO)NC1=O)C(C)C` (Ac-VSKLKSQLEKRKQN-NH2; lactam 5-9), the helicity is -974 MRE222.

For the compound `CC[C@H](C)[C@@H]1NC(=O)[C@@H](NC(=O)[C@H](CCC(N)=O)NC(=O)[C@H](CCCCN)NC(=O)[C@H](CC(C)C)NC(=O)[C@H](CC(N)=O)NC(C)=O)CCC(=O)NCCCC[C@@H](C(=O)N[C@H](C(=O)N[C@@H](CCCCN)C(=O)N[C@@H](CC(C)C)C(=O)N[C@@H](CCCCN)C(=O)N[C@@H](CC(=O)O)C(=O)N[C@@H](CCC(=O)O)C(N)=O)C(C)C)NC(=O)[C@H](Cc2c[nH]cn2)NC(=O)[C@H](CCCCN)NC1=O` (Ac-NLKQEIKHKVKLKDE-NH2; lactam 5-9), the helicity is -2830 MRE222.

As to Ac-VSKLRSQLVKRKQN-NH2, the helicity was -1100 MRE222.

As for `CC(=O)N[C@H](C(=O)N[C@@H](CO)C(=O)N[C@@H](CCCCN)C(=O)N[C@@H](CC(C)C)C(=O)N[C@@H](CCCNC(=N)N)C(=O)N[C@H]1CCC(=O)NCCCC[C@@H](C(=O)N[C@@H](CCCNC(=N)N)C(=O)N[C@@H](CCCCN)C(=O)N[C@@H](CCC(N)=O)C(=O)N[C@@H](CC(N)=O)C(N)=O)NC(=O)[C@H](C(C)C)NC(=O)[C@H](CC(C)C)NC(=O)[C@H](CCC(N)=O)NC1=O)C(C)C` (Ac-VSKLREQLVKRKQN-NH2; lactam 6-10), the helicity was -4850 MRE222.

The compound `CC[C@H](C)[C@H](NC(=O)[C@H](CCCCN)NC(=O)[C@H](CCC(N)=O)NC(=O)[C@H](CCCCN)NC(=O)[C@H](CC(C)C)NC(=O)[C@H](CC(N)=O)NC(C)=O)C(=O)N[C@H]1CCC(=O)NCCCC[C@@H](C(=O)N[C@@H](CC(C)C)C(=O)N[C@@H](CCCCN)C(=O)N[C@@H](CC(=O)O)C(=O)N[C@@H](CCC(=O)O)C(N)=O)NC(=O)[C@H](C(C)C)NC(=O)[C@H](C(C)C)NC(=O)[C@H](Cc2c[nH]cn2)NC1=O` (Ac-NLKQKIEHVVKLKDE-NH2; lactam 7-11) displayed a helicity of -3850 MRE222.

Values taken from patent publication US10562935B2, “Stapled peptides and uses thereof” (London Health Sciences Centre Research Inc., priority 2015, dated 2020).
